Molecular target: Calmodulin (His-CaM) (UniProt P0DP23)
Assay: BLI; ForteBio Octet Red; increasing concentrations of ASPM IQ motif (GST-IQ) to CaM; 1:1 binding model; Kd calculated as Koff/Kon

fold increase of Kd against T. truncatus | Kd | Substance
2.2 fold |  | GST-IQ fusion protein, ASPM 23rd IQ motif and its adjacent 16 amino acid motif, Physeter macrocephalus (domain or fragment)
 | 17.7 nM | GST-IQ fusion protein, ASPM 23rd IQ motif and its adjacent 16 amino acid motif, Tursiops truncatus (domain or fragment)

Reference: paper PMC5576371
